T1: YheM subunit of the E. coli YheML construct, with N-terminal 6-His tag (Escherichia coli, UniProt P45531 1-119)
T1 construct: Negative control construct in which YheN is omitted; the first subunit of each construct carries the 6-His tag; also called TusC; first subunit of Yhe ML; not shown: N-terminal 6-His tag from the N-6His pTET S11 vector
T1 sequence: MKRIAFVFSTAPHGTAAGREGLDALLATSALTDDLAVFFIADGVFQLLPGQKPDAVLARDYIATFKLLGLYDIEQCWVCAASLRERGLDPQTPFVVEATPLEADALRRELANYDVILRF

T2: YBGK of Escherichia coli with C-terminal GFP S11 tag (Escherichia coli, UniProt P75745 1-310)
T2 construct: Labelled by complementation with co-expressed GFP 1-10 detector; also called last subunit of YBGJ/YBGK (predicted allophanate hydrolase); not shown: flexible linker and C-terminal GFP S11 tag of the pTET S11 vector
T2 sequence: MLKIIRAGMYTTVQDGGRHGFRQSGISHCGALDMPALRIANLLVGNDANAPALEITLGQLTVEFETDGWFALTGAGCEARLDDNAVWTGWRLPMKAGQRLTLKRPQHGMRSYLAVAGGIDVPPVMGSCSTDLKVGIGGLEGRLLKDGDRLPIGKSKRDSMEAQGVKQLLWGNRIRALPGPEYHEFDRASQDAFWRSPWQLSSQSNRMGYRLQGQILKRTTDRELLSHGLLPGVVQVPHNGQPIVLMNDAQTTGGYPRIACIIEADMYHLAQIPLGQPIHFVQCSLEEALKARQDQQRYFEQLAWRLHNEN


Key:
[1] = target: T1, YheM subunit of the E. coli YheML …; assay: colony filtration immobilized bead assay: 6-His subunit captured on Talon resin in agarose, GFP S11 subunit read by complemented GFP fluorescence; YheML construct with YheN omitted
[2] = target: T2, YBGK of Escherichia coli with …; assay: colony filtration immobilized bead assay, capture plates with TNG buffer (FIG. 4B); complex 6

| Binder | binding result [1] | binding result [2] |
| --- | --- | --- |
| YheL subunit of the E. coli YheNML / YheML constructs, with C-terminal GFP S11 tag (other, Fluorescently labelled in the cell by complementation with co-expressed GFP 1-10 detector; also called TusB; last subunit of Yhe NML and Yhe ML; not shown: flexible linker and C-terminal GFP S11 tag (beta-strand 11, residues 215-230) of the pTET S11 vector; the S11 variant an) MLHTLHRSPWLTDFAALLRLLSEGDELLLLQDGVTAAVDGNRYLESLRNAPIKVYALNEDLIARGLTGQISNDIILIDYTDFVRLTVKHPSQMAW | no binding |  |
| YBGJ of Escherichia coli with N-terminal 6-His tag (other, also called predicted allophanate hydrolase; not shown: N-terminal 6-His tag from the N-6His pTET S11 vector) MQRARCYLIGETAVVLELEPPVTLASQKRIWRLAQRLVDMPNVVEAIPGMNNITVILRNPESLALDAIERLQRWWEESEALEPESRFIEIPVVYGGAGGPDLAVVAAHCGLSEKQVVELHSSVEYVVWFLGFQPGFPYLGSLPEQLHTPRRAEPRLLVPAGSVGIGGPQTGVYPLATPGGWQLIGHTSLSLFDPARDEPILLRPGDSVRFVPQKEGVC |  | binds |
